From patent US20200369747A1 (ICHNOS SCIENCES, published 2020)

Target: CD3ε on Jurkat-NFAT responder cells (UniProt P07766 23-207)
Test: cell-based or functional assay

Sequence of CD3ε on Jurkat-NFAT responder cells (P07766 23-207): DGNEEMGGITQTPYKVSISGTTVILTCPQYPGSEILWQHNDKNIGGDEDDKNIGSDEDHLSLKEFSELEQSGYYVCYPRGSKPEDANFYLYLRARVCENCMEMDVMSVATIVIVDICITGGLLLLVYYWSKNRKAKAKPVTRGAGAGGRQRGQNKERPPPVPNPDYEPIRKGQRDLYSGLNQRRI

B1: BEAT®3 (bispecific antibody, human IgG1, kappa, L234A L235A)
chain 1: EVQLVESGGGLVQPGGSLRLSCAASGFTFNTYAMNWVRQAPGKGLEWVARIRSKYNNYATYYADSVKSRFTISRDDSKNTLYLQMNSLRAEDTAVYYCVRHGNFGNSYVSYFAYWGQGTTVTVSSGGGGSGGGGSGGGGSEIVVTQSPATLSVSPGERATLSCRSSTGAVTESNYANWVQEKPGQAFRGLIGGANKRAPGVPARFSGSLSGDEATLTISSLQSEDFAVYYCALFYSNTWVFGQGTKLEIKGGGGTQVQLQESGPGLVKPSETLSLTCTVSGGSVSSGDYYWTWIRQSPGKGLEWIGHIYYSGNTNYNPSLKSRLTISIDTSKTQFSLKLSSVTAADTAIYYCVRDRVTGAFDIWGQGTMVTVSSASTKGPSVFPLAPSSKSTSGGTAALGCLVKDYFPEPVTVSWNSGALTSGVHTFPAVLQSSGLYSLSSVVTVPSSSLGTQTYICNVNHKPSNTKVDKKVEPKSCDKTHTCPPCPAPEAAGGPSVFLFPPKPKDTLMISRTPEVTCVVVDVSHEDPEVQFKWYVDGVEVHNAKTKPREEQYNSTFRVVSVLTVLHQDWLNGKEYKCKVSNKALPAPIEKTISKTKGQPREPAVYTLPPSREEMTKNQVKLVCLVTGFYPSDIAVEWESSGQPENNYYTTPPMLDSDGSFSLVSWLNVDKSRWQQGNIFSCSVMHEALHNRFTQKSLSLSPG
chain 2: not shown
chain 3: DKTHTCPPCPAPEAAGGPSVFLFPPKPKDTLMISRTPEVTCVVVDVSHEDPEVKFNWYVDGVEVHNAKTKPREEQYNSTYRVVSVLTVLHQDWLNGKEYKCKVSNKALPAPIEKTISKAKGQPREPEVATFPPSRDELTKNQVTLVCLVTGFYPSDIAVEWESNGQPENNYKTDPPLLESDGSFALSSRLRVDKSRWQQGNVFSCSVMHEALHNHYTQKSLSLSPG
EC50 of NFAT-luciferase luminescence (Jurkat-NFAT responder cells co-incubated with SK-BR-3 target cells); sample: BEAT®3 High pH T2h: 0.0065 µg/ml
EC50 of NFAT-luciferase luminescence (Jurkat-NFAT responder cells co-incubated with SK-BR-3 target cells); sample: BEAT®3 High pH T4h: 0.0074 µg/ml
